By Kd is commonly meant the concentration at which binding is half-saturated. Low values mean tighter binding, high ones weaker binding.

Like-named read-outs stand apart in the source and are kept apart here.

The target in assay [1] is PyoS5_(1–315) (P. aeruginosa) (UniProt Q9I4Y4). In words: SPR.
The target is the same in assay [2]. In words: SPR. The source holds these as a separate data set. (In general: SPR reads the build-up and loss of mass on a sensor chip optically.)

On to TonB1_(109–342) (domain or fragment), for which the Kd amounted to 230 nM in assay [1] and 241 nM in assay [2].
